Data from publication PMC6455120 (2019).

Biological target: T1, MERS-CoV spike ectodomain ECD (Middle East respiratory …, UniProt K9N5Q8)
T1 chain: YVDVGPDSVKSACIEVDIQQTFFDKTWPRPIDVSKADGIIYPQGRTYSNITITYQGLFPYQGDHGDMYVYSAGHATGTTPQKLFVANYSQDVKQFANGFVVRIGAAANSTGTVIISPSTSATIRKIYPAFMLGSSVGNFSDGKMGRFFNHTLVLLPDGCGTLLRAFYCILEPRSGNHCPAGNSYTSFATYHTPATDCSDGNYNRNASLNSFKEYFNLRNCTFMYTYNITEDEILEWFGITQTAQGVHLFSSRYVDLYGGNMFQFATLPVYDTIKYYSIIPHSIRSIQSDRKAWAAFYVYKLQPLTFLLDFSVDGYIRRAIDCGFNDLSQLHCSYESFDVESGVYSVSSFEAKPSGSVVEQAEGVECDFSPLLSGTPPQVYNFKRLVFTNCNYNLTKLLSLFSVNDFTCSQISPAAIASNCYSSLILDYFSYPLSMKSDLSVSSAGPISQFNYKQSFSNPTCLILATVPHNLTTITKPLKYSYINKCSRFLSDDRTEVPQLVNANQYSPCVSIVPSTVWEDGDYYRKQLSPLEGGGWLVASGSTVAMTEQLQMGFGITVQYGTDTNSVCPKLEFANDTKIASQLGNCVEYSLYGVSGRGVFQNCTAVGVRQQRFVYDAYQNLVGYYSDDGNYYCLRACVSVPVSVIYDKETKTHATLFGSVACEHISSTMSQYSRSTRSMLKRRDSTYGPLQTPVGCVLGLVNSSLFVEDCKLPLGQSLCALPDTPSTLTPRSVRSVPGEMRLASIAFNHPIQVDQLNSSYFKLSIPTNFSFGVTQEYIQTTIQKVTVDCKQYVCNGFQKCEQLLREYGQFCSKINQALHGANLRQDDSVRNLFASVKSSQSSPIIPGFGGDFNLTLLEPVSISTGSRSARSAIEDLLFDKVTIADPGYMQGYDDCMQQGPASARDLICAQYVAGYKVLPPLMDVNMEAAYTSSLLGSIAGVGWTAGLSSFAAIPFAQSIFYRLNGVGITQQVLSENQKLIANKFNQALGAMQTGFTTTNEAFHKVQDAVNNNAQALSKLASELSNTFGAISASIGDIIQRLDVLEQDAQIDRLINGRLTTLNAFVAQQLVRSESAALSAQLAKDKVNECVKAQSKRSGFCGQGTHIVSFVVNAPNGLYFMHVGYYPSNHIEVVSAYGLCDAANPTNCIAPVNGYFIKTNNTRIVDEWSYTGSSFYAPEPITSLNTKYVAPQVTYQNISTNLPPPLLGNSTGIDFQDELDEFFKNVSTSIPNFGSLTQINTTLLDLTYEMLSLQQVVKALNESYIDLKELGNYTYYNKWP

B1: DPP4 (protein)
chain: SRKTYTLTDYLKNTYRLKLYSLRWISDHEYLYKQENNILVFNAEYGNSSVFLENSTFDEFGHSINDYSISPDGQFILLEYNYVKQWRHSYTASYDIYDLNKRQLITEERIPNNTQWVTWSPVGHKLAYVWNNDIYVKIEPNLPSYRITWTGKEDIIYNGITDWVYEEEVFSAYSALWWSPNGTFLAYAQFNDTEVPLIEYSFYSDESLQYPKTVRVPYPKAGAVNPTVKFFVVNTDSLSSVTNATSIQITAPASMLIGDHYLCDVTWATQERISLQWLRRIQNYSVMDICDYDESSGRWNCLVARQHIEMSTTGWVGRFRPSEPHFTLDGNSFYKIISNEEGYRHICYFQIDKKDCTFITKGTWEVIGIEALTSDYLYYISNEYKGMPGGRNLYKIQLSDYTKVTCLSCELNPERCQYYSVSFSKEAKYYQLRCSGPGLPLYTLHSSVNDKGLRVLEDNSALDKMLQNVQMPSKKLDFIILNETKFWYQMILPPHFDKSKKYPLLLDVYAGPCSQKADTVFRLNWATYLASTENIIVASFDGRGSGYQGDKIMHAINRRLGTFEVEDQIEAARQFSKMGFVDNKRIAIWGWSYGGYVTSMVLGSGSGVFKCGIAVAPVSRWEYYDSVYTERYMGLPTPEDNLDHYRNSTVMSRAENFKQVEYLLIHGTADDNVHFQQSAQISKALVDVGVDFQAMWYTDEDHGIASSTAHQHIYTHMSHFIKQCFSLP
B1 showed a Kd of 3.42 nM.
